{"source": "patent US6518016", "molecular_target": "factor Xa-activated factor V(Q506) (UniProt P12259)", "sequence (P12259 29-737 R534Q, chain 1 of 2)": "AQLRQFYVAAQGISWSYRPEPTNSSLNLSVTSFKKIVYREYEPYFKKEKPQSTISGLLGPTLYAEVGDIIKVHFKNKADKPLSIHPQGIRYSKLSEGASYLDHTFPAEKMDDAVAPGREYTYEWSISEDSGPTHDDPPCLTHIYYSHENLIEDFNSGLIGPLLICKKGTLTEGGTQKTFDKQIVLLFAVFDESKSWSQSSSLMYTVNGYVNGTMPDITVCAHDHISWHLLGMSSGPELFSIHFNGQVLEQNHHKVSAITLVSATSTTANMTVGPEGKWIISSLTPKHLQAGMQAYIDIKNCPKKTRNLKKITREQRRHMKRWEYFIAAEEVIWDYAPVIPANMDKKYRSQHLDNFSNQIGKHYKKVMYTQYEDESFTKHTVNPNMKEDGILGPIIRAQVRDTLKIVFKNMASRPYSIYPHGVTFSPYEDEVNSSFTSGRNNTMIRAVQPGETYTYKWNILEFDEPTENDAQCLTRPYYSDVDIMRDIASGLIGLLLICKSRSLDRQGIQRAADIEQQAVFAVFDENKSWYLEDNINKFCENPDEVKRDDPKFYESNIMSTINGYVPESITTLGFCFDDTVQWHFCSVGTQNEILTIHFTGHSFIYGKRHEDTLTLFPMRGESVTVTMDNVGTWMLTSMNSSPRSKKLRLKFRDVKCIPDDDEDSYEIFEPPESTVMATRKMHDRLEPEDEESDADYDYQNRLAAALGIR", "sequence (P12259 1047-2224, chain 2 of 2)": "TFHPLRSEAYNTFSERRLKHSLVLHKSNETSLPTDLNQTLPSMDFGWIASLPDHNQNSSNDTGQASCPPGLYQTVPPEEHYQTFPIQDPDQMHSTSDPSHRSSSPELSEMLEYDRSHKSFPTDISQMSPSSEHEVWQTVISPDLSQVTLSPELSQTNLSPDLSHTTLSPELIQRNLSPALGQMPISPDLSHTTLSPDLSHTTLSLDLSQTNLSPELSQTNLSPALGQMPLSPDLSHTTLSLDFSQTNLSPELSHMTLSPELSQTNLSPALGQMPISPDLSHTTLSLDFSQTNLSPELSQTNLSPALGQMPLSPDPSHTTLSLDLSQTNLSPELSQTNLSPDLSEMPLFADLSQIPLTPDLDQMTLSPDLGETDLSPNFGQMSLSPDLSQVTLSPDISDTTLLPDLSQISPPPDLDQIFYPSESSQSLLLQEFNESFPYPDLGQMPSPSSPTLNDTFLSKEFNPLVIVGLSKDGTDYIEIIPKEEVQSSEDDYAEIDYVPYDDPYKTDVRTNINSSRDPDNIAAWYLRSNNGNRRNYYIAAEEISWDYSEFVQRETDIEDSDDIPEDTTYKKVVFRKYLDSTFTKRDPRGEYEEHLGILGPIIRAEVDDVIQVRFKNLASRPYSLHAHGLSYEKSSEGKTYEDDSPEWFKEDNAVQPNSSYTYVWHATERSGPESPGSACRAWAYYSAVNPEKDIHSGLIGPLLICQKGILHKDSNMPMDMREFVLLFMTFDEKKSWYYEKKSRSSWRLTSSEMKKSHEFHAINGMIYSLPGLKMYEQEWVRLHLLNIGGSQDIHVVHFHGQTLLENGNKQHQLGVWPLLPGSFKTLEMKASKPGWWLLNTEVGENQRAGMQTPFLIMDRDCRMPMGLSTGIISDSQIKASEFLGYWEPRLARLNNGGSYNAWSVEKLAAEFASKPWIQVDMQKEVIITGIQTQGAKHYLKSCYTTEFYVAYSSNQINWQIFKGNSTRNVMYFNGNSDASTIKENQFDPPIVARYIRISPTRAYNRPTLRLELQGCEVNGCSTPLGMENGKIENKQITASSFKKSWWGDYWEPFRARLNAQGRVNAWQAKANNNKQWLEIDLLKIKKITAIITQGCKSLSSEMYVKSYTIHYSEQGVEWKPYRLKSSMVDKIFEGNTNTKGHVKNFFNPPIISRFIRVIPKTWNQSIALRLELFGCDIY", "data": [{"substance": "activated protein C (APC)", "values": [{"measurement": "inactivation of factor Va activity by APC (factor Va activity over time after adding 1.9 nM APC)", "result": "the replacement of Arg-506 by Gln only prevents the inactivation of the Xa-activated form of factor V by APC"}]}]}
